Experimental data reported in article PMC4540644 (Journal of molecular biology, 2015).

Experiments:
Assay in all cases: co-sedimentation
[1] = biological target: T1, Rabbit skeletal muscle α-actin filaments (F-actin) (rabbit, UniProt P68135 1-377)
[2] = biological target: Yeast (Saccharomyces cerevisiae) actin, wild type, filaments (Saccharomyces cerevisiae, UniProt P60010 1-375)
[3] = biological target: T1, Rabbit skeletal muscle α-actin …; remark: listed apart in the source

stoichiometry N [1]	binding result [2]	Kd [3] [nM]	Binder
1	binds		Human vinculin tail (VT, residues 879-1066) (domain or fragment, UniProt P18206-2 879-1066, looked up) EEKDEEFPEQKAGEVINQPMMMAARQLHDEARKWSSKGNDIIAAAKRMALLMAEMSRLVRGGSGTKRALIQCAKDIAKASDEVTRLAKEVAKQCTDKRIRTNLLQVCERIPTISTQLKILSTVKATMLGRTNISDEESEQATEMLVHNAQNLMQSVKETVREAEAASIKIRTDAGFTLRWVRKTPWYQ
1		560 ± 90	Human metavinculin tail (MVT, residues 879-1134) (domain or fragment) EEKDEEFPEQKAGEVINQPMMMAARQLHDEARKWSSKPGIPAAEVGIGVVAEADAADAAGFPVPPDMEDDYEPELLLMPSNQPVNQPILAAAQSLHREATKWSSKGNDIIAAAKRMALLMAEMSRLVRGGSGTKRALIQCAKDIAKASDEVTRLAKEVAKQCTDKRIRTNLLQVCERIPTISTQLKILSTVKATMLGRTNISDEESEQATEMLVHNAQNLMQSVKETVREAEAASIKIRTDAGFTLRWVRKTPWYQ
